{
  "source": "paper PMC2719355",
  "about": "(The Journal of Biological Chemistry, 2009)",
  "proteins": {"B1": {"name": "recombinant full-length human butyrylcholinesterase, usual form (rBChE-U) (enzyme)", "chain": "EDDIIIATKNGKVRGMNLTVFGGTVTAFLGIPYAQPPLGRLRFKKPQSLTKWSDIWNATKYANSCCQNIDQSFPGFHGSEMWNPNTDLSEDCLYLNVWIPAPKPKNATVLIWIYGGGFQTGTSSLHVYDGKFLARVERVIVVSMNYRVGALGFLALPGNPEAPGNMGLFDQQLALQWVQKNIAAFGGNPKSVTLFGESAGAASVSLHLLSPGSHSLFTRAILQSGSFNAPWAVTSLYEARNRTLNLAKLTGCSRENETEIIKCLRNKDPQEILLNEAFVVPYGTPLSVNFGPTVDGDFLTDMPDILLELGQFKKTQILVGVNKDEGTAFLVYGAPGFSKDNNSIITRKEFQEGLKIFFPGVSEFGKESILFHYTDWVDDQRPENYREALGDVVGDYNFICPALEFTKKFSEWGNNAFFYYFEHRSSKLPWPEWMGVMHGYEIEFVFGLPLERRDNYTKAEEILSRSIVKRWANFAKYGNPNETQNNSTSWPVFKSTEQKYLTLNTESTRIMTKLRAQQCRFWTSFFPKVLEMTGNIDEAEWEWKAGFHRWNNYMMDWKNQFNDYTSKKESCVGL"}},
  "target": "the molecule itself",
  "assay": "mass spectrometry",
  "data": [
    {"protein": "B1", "values": [
      {"measurement": "stoichiometry N", "result": 2}
    ]}
  ]
}
